Values quoted from earlier work in PMC6359047.

Biological target: MT1-MMP (Homo sapiens) (UniProt P50281)

TIMP-1, sequence (P01033 24-207): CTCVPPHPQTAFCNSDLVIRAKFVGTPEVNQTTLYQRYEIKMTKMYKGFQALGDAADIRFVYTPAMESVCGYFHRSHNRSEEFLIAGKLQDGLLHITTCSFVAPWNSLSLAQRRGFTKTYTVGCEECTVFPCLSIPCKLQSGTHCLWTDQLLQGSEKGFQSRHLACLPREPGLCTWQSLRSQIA

- Ki: 0.178 µM
Substance: TIMP-1 (from UniProt P01033)
